In general, Kd refers to the free concentration of one partner at which half of the binding sites on the other are occupied at equilibrium, for simple one-to-one binding. A word on the koff: it is the rate constant with which the complex falls apart. A low value points to slow dissociation. Usually kon stands for a measure of how fast the partners come together.

The target in this test is T1, murine 4-1BBL–CD8 fusion protein (mouse, UniProt P41274 104-309).
T1 sequence (looked up): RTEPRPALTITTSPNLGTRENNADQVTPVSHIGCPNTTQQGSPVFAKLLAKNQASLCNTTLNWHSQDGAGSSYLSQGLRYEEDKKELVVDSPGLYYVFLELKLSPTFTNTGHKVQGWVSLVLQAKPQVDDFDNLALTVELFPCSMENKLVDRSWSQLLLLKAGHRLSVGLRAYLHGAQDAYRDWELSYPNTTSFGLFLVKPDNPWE
The test can be described thus: SPR.

B1: murine 4-1BB–Ig fusion protein (Fc fusion, mouse, UniProt P20334 22-185, looked up)
chain: GAVQNSCDNCQPGTFCRKYNPVCKSCPPSTFSSIGGQPNCNICRVCAGYFRFKKFCSSTHNAECECIEGFHCLGPQCTRCEKDCRPGQELTKQGCKTCSLGTFNDQNGTGVCRPWTNCSLDGRSVLKTGTTEKDVVCGPPVVSFSPSTTISVTPEGGPGGHSLQ
For the molecule B1, the dissociation constant Kd worked out at 1.16 nM, the koff worked out at 0.000213 s⁻¹ and the kon was found to be 183000 M⁻¹ s⁻¹.
